Experimental data published in patent US12448610B2, “Preparation of glycosyltransferase UGT76G1 mutant and use thereof” (CAS Center for Excellence in Molecular Plant Sciences, priority 2019, dated 2025).

Tests used:
Assay type in all cases: biochemical
[1] = Enzymic reaction of UGT76G1 wild-type and mutants in vitro, substrate orientin, products detected by HPLC; details: in words
Experimental: (§1) The enzymic reaction system (50 μL) includes: 5 μg protein, 1.5 mM UDP-glucose, 250 μM glycosyl acceptor substrate isoorientin, orientin, apigenin or luteolin, and Buffer A (20 mM Tris-HCl, pH=8.0, 100 mM NaCl). The reaction of each mutant protein for the same substrate was repeated three times. Reaction conditions: 37° C. overnight. The reaction was quenched with an equal volume of methanol. After vigorous shaking, the reaction was centrifuged at 12000 rpm for 30 min. The supernatant was used for HPLC detection. Detection method: mobile phase A (acetonitrile, containing 0.1% formic acid)—mobile phase B (water, containing 0.1% formic acid) gradient elution. Chromatographic conditions: gradient elution from initial 5% A to 50% A within 11 min, elution at 100% A for 4 min, and back to 5% A within 1 min for equilibration for 4 min. The peak area of the catalytic product of the mutant was calculated and compared with the peak area of the catalytic product of wild-type UGT76G1.

[2] = Enzymic reaction of UGT76G1 wild-type and mutants in vitro, substrate isoorientin, products detected by HPLC; details: for conversion efficiency of isoorientin (compound 1): HPLC analysis of FIG. 1; for conversion efficiency of isoorientin (compound 1) / glycosylation efficiency: in words; for yield of compound 2 as compared with the wild type / yield of compound 3 as compared with the wild type: substrate isoorientin 250 μM, 5 μg protein, 1.5 mM UDP-glucose, 37° C. overnight, HPLC peak area, 100% for the wild type; for glycosylation efficiency: substrate isoorientin, versus wild type
Experimental: The enzyme activity of the glycosyltransferase UGT76G1 mutant can be detected by a technique known in the art. In a specific example of the present invention, the enzyme reaction system with the same conditions is used to detect the enzyme activity of different mutants in vitro. After the reaction, the product was detected by HPLC. The change of a mutant's catalytic activity was analyzed by comparing the relative conversion ratio of the flavonoid isoorientin by the mutant and the wild-type protein.
as §1

[3] = Enzymic reaction of UGT76G1 wild-type and mutants in vitro, substrate luteolin, products detected by HPLC; details: HPLC analysis of FIG. 8; compared with wild-type (WT) or mutants I90L, I199L; in words
Experimental: as §1

[4] = Enzymic reaction of UGT76G1 wild-type and mutants in vitro, substrate apigenin, products detected by HPLC; details: HPLC analysis of FIG. 7; compared with wild-type (WT) or mutants I90L, I199L; in words
Experimental: as §1

[5] = substrate orientin, versus wild type

Molecule	conversion rate for orientin (compound 4) ([1]; HPLC analysis of FIG. 5)	conversion efficiency of isoorientin (compound 1) [2]	production efficiency of product 5 [1, 5]	glycosylation products of luteolin (compound 8) [3]	glycosylation products of apigenin (compound 7) [4]	yield of compound 2 as compared with the wild type [2]	yield of compound 3 as compared with the wild type [2]	glycosylation efficiency [2]	production efficiency of product 6 [1, 5]
wild-type UGT76G1: wild-type glycosyltransferase UGT76G1 derived from Stevia rebaudiana, amino acid sequence of SEQ ID NO: 1 (protein, listed as Stevia rebaudiana) MENKTETTVRRRRRIILFPVPFQGHINPILQLANVLYSKGFSITIFHTNFNKPKTSNYPHFTFRFILDNDPQDERISNLPTHGPLAGMRIPIINEHGADELRRELELLMLASEEDEEVSCLITDALWYFAQSVADSLNLRRLVLMTSSLFNFHAHVSLPQFDELGYLDPDDKTRLEEQASGFPMLKVKDIKSAYSNWQILKEILGKMIKQTKASSGVIWNSFKELEESELETVIREIPAPSFLIPLPKHLTASSSSLLDHDRTVFQWLDQQPPSSVLYVSFGSSSEVDEKDFLEIARGLVDSKQSFLWVVRPGFVKGSTWVEPLPDGFLGERGRIVKWVPQQEVLAHGAIGAFWTHSGWNSTLESVCEGVPMIFSDFGLDQPLNARYMSDVLKVGVYLENGWERGEIANAIRRVMVDEEGEYIRQNARVLKQKADVSLMKGGSSYESLESLVSYISSL	a certain conversion rate	low	–	–	–	–	–	–	–
L204F: glycosyltransferase UGT76G1 mutant, mutation of L at 204th to F (SEQ ID NO: 4) (protein, Variant) MENKTETTVRRRRRIILFPVPFQGHINPILQLANVLYSKGFSITIFHTNFNKPKTSNYPHFTFRFILDNDPQDERISNLPTHGPLAGMRIPIINEHGADELRRELELLMLASEEDEEVSCLITDALWYFAQSVADSLNLRRLVLMTSSLFNFHAHVSLPQFDELGYLDPDDKTRLEEQASGFPMLKVKDIKSAYSNWQILKEIFGKMIKQTKASSGVIWNSFKELEESELETVIREIPAPSFLIPLPKHLTASSSSLLDHDRTVFQWLDQQPPSSVLYVSFGSSSEVDEKDFLEIARGLVDSKQSFLWVVRPGFVKGSTWVEPLPDGFLGERGRIVKWVPQQEVLAHGAIGAFWTHSGWNSTLESVCEGVPMIFSDFGLDQPLNARYMSDVLKVGVYLENGWERGEIANAIRRVMVDEEGEYIRQNARVLKQKADVSLMKGGSSYESLESLVSYISSL	–	–	can increase	significantly different from those converted by wild-type	significantly different from those converted by wild-type	285%	159%	significantly increased	–
I199F: glycosyltransferase UGT76G1 mutant, mutation of I at 199th to F (SEQ ID NO: 3) (protein, Variant) MENKTETTVRRRRRIILFPVPFQGHINPILQLANVLYSKGFSITIFHTNFNKPKTSNYPHFTFRFILDNDPQDERISNLPTHGPLAGMRIPIINEHGADELRRELELLMLASEEDEEVSCLITDALWYFAQSVADSLNLRRLVLMTSSLFNFHAHVSLPQFDELGYLDPDDKTRLEEQASGFPMLKVKDIKSAYSNWQFLKEILGKMIKQTKASSGVIWNSFKELEESELETVIREIPAPSFLIPLPKHLTASSSSLLDHDRTVFQWLDQQPPSSVLYVSFGSSSEVDEKDFLEIARGLVDSKQSFLWVVRPGFVKGSTWVEPLPDGFLGERGRIVKWVPQQEVLAHGAIGAFWTHSGWNSTLESVCEGVPMIFSDFGLDQPLNARYMSDVLKVGVYLENGWERGEIANAIRRVMVDEEGEYIRQNARVLKQKADVSLMKGGSSYESLESLVSYISSL	–	–	–	–	–	799%	278%	significantly increased	–
G87F: glycosyltransferase UGT76G1 mutant, mutation of G at 87th to F (SEQ ID NO: 2) (protein, Variant) MENKTETTVRRRRRIILFPVPFQGHINPILQLANVLYSKGFSITIFHTNFNKPKTSNYPHFTFRFILDNDPQDERISNLPTHGPLAFMRIPIINEHGADELRRELELLMLASEEDEEVSCLITDALWYFAQSVADSLNLRRLVLMTSSLFNFHAHVSLPQFDELGYLDPDDKTRLEEQASGFPMLKVKDIKSAYSNWQILKEILGKMIKQTKASSGVIWNSFKELEESELETVIREIPAPSFLIPLPKHLTASSSSLLDHDRTVFQWLDQQPPSSVLYVSFGSSSEVDEKDFLEIARGLVDSKQSFLWVVRPGFVKGSTWVEPLPDGFLGERGRIVKWVPQQEVLAHGAIGAFWTHSGWNSTLESVCEGVPMIFSDFGLDQPLNARYMSDVLKVGVYLENGWERGEIANAIRRVMVDEEGEYIRQNARVLKQKADVSLMKGGSSYESLESLVSYISSL	–	relatively the highest	–	significantly different from those converted by wild-type	significantly different from those converted by wild-type	1381%	1235%	significantly increased	–
L379W: glycosyltransferase UGT76G1 mutant, mutation of L at 379th to W (SEQ ID NO: 5) (protein, Variant) MENKTETTVRRRRRIILFPVPFQGHINPILQLANVLYSKGFSITIFHTNFNKPKTSNYPHFTFRFILDNDPQDERISNLPTHGPLAGMRIPIINEHGADELRRELELLMLASEEDEEVSCLITDALWYFAQSVADSLNLRRLVLMTSSLFNFHAHVSLPQFDELGYLDPDDKTRLEEQASGFPMLKVKDIKSAYSNWQILKEILGKMIKQTKASSGVIWNSFKELEESELETVIREIPAPSFLIPLPKHLTASSSSLLDHDRTVFQWLDQQPPSSVLYVSFGSSSEVDEKDFLEIARGLVDSKQSFLWVVRPGFVKGSTWVEPLPDGFLGERGRIVKWVPQQEVLAHGAIGAFWTHSGWNSTLESVCEGVPMIFSDFGWDQPLNARYMSDVLKVGVYLENGWERGEIANAIRRVMVDEEGEYIRQNARVLKQKADVSLMKGGSSYESLESLVSYISSL	–	–	–	–	–	–	–	–	can increase
